In FireProtDB (doi:10.1021/bi034486i):

B1: Thioredoxin-like protein 4A, P83876 (parent)
chain: MSYMLPHLHNGWQVDQAILSEEDRVVVIRFGHDWDPTCMKMDEVLYSIAEKVKNFAVIYLVDITEVPDFNKMYELYDPCTVMFFFRNKHIMIDLGTGNNNKINWAMEDKQEMVDIIETVYRGARKGRGLVVSPKDYSTKYRY

Variants of: B1
Conditions: Homo sapiens; pH 7.82; 20 °C; GdnHCl; CD; sodium phosphate 50 mM; structure 1QGV; whole UniProt chain shown
For MSYMLPHLHNGWQVDQAILSEEDRVVVIRFGHDWDPTCMKMDEVLYSIAEKVKNFAVIYLVDITEVPDFNKMYELYDPCTVMFFFRNKHIMIDLGTGNNNKINWAMEDKQEMVDIIETVYRGARKDRGLVVSPKDYSTKYRY, the “ddG of mutation (higher = less stable)” value was 1.71 kcal/mol, the denaturant m value was 2.78 kcal/mol/M and the “denaturant midpoint (higher = more stable)” value was 3.36 M. It also gave an unfolding free energy of 9.34 kcal/mol.
